We go through two molecules from article doi:10.1101/715409 (bioRxiv, 2019).

First the molecules themselves.
B1: 6xHis Bud6_(1-141) (domain or fragment)
chain: MKMAVDDPTYGTPKIKRTASSSSSIETTVTKLLMSTKHLLQVLTQWSKGTTSGRLVSDAYVQLGNDFKVVSKFFMHAKVDMSDVGDVPMALRRVLEVTLREPPSDETLNKHLPKIREIIVTLLDKLKVKQAILKNMQQEHR

The target of assay [1] is T1, GST fusion to Boi1 (1-203) (Saccharomyces cerevisiae, UniProt P38041 1-203).
T1 sequence: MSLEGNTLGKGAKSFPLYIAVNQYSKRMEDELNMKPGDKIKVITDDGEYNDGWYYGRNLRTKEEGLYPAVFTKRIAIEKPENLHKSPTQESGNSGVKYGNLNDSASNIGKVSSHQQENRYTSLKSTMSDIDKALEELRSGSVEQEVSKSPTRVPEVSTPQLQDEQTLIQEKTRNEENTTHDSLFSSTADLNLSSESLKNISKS
Put plainly: pull-down.

The target of assay [2] is B1. The assay is described as follows: pull-down.

Consider B1, for which, in assay [1], the binding result is on record as “binds”.

B2: GST fusion to Boi_(77-178) (domain or fragment)
chain: IEKPENLHKSPTQESGNSGVKYGNLNDSASNIGKVSSHQQENRYTSLKSTMSDIDKALEELRSGSVEQEVSKSPTRVPEVSTPQLQDEQTLIQEKTRNEENT
For B2, the binding result in assay [2] is recorded as “binds”.
